Assay results published in patent publication US20260232734A1 (published 2026).
Blank lines part the entries; values can stand above or below the binder they belong to.

Key:
[1] = target: KRAS G12D neoantigen endogenously presented by HLA A*11:01 on KRAS-p.G12D tumor or transfected cell lines (human); assay: cell-based or functional assay
[2] = target: T1, KRAS G12D peptide on HLA-A*11:01 (human); assay: cytokine release
T1 peptide: VVVGADGVGK

[3] = target: T2, KRAS G12D peptide on HLA-A*11:01 (human); assay: cytokine release
T2 peptide: VVGADGVGK

[4] = target: T1, KRAS G12D peptide on HLA-A*11:01; assay: activation reporter or marker
[5] = target: T3, KRAS wild type peptide on HLA-A*11:01 (human); assay: activation reporter or marker
T3 peptide: VVVGAGGVGK

[6] = target: T1, KRAS G12D peptide on HLA-A*11:01; assay: killing
[7] = target: T2, KRAS G12D peptide on HLA-A*11:01; assay: killing
[8] = target: T3, KRAS wild type peptide on HLA-A*11:01; assay: killing
[9] = target: T4, KRAS wild type peptide on HLA-A*11:01 (human); assay: killing
T4 peptide: VVGAGGVGK

binding result [2]: recognises
binding result [3]: recognises
B2: PD6_KRASmut_22 (TCR, V domains shown)
Valpha: AQTVTQSQPEMSVQEAETVTLSCTYDTSESDYYLFWYKQPPSRQMILVIRQEAYKQQNATENRFSVNFQKAAKSFSLKISDSQLGDAAMYFCAYYSGGGADGLTFGKGTHLIIQP
Vbeta: SAVISQKPSRDICQRGTSLTIQCQVDSQVTMMFWYRQQPGQSLTLIATANQGSEATYESGFVIDKFPISRPNLTFSTLTVSNMSPEDSSIYLCSVTWAGGWSYGYTFGSGTRLTVV

binding result [4]: recognises
binding result [5]: no recognition
B3: EE208_KRAS_1 (TCR, V domains shown)
Valpha: GNSVTQMEGPVTLSEEAFLTINCTYTATGYPSLFWYVQYPGEGLQLLLKATKADDKGSNKGFEATYRKETTSFHLEKGSVQVSDSAVYFCALSDGAGGFKTIFGAGTRLFVKA
Vbeta: EADIYQTPRYLVIGTGKKITLECSQTMGHDKMYWYQQDPGMELHLIHYSYGVNSTEKGDLSSESTVSRIRTEHFPLTLESARPSHTSQYLCASSESLYNEQFFGPGTRLTVL

binding result [5]: no recognition
B4: EE184_KRAS_8a (TCR, V domains shown)
Valpha: AQTVTQSQPEMSVQEAETVTLSCTYDTSESDYYLFWYKQPPSRQMILVIRQEAYKQQNATENRFSVNFQKAAKSFSLKISDSQLGDAAMYFCAYKKYNDMRFGAGTRLTVKP
Vbeta: DGGITQSPKYLFRKEGQNVTLSCEQNLNHDAMYWYRQDPGQGLRLIYYSQIVNDFQKGDIAEGYSVSREKKESFPLTVTSAQKNPTAFYLCASSTGAGAFRTEAFFGQGTRLTVV
binding result [6]: recognises
binding result [7]: recognises

Second part, the binder before the results:

B1: EE209_2 TCR (SEQ ID NOs: 12 and 13; beta chain using TRBC2-201) (TCR)
TCR alpha: ILNVEQSPQSLHVQEGDSTNFTCSFPSSNFYALHWYRWETAKSPEALFVMTLNGDEKKKGRISATLNTKEGYSYLYIKGSQPEDSATYLCAFLPGYSTLTFGKGTMLLVSPDIQNPDPAVYQLRDSKSSDKSVCLFTDFDSQTNVSQSKDSDVYITDKTVLDMRSMDFKSNSAVAWSNKSDFACANAFNNSIIPEDTFFPSPESSCDVKLVEKSFETDTNLNFQNLSVIGFRILLLKVAGFNLLMTLRLWSS
TCR beta: DAGITQSPRYKITETGRQVTLMCHQTWSHSYMFWYRQDLGHGLRLIYYSAAADITDKGEVPDGYVVSRSKTENFPLTLESATRSQTSVYFCASSVGRGGTEAFFGQGTRLTVVEDLKNVFPPKVAVFEPSEAEISHTQKATLVCLATGFYPDHVELSWWVNGKEVHSGVSTDPQPLKEQPALNDSRYCLSSRLRVSATFWQNPRNHFRCQVQFYGLSENDEWTQDRAKPVTQIVSAEAWGRADCGFTSESYQQGVLSATILYEILLGKATLYAVLVSALVLMAMVKRKDSRG
CD137 upregulation [1]: 7 of 7 lines
IFNg production [1]: 5 of 7 lines
granzyme B production [1]: 6 of 7 lines
killing activity (impedance assay) [1]: 5 of 7 lines

B5: EE209_2 TCR (TCR, V domains shown)
Valpha: ILNVEQSPQSLHVQEGDSTNFTCSFPSSNFYALHWYRWETAKSPEALFVMTLNGDEKKKGRISATLNTKEGYSYLYIKGSQPEDSATYLCAFLPGYSTLTFGKGTMLLVSP
Vbeta: DAGITQSPRYKITETGRQVTLMCHQTWSHSYMFWYRQDLGHGLRLIYYSAAADITDKGEVPDGYVVSRSKTENFPLTLESATRSQTSVYFCASSVGRGGTEAFFGQGTRLTVV
binding result [6]: recognises
binding result [8]: no recognition
binding result [7]: recognises
binding result [9]: no recognition
